Measured values: a protein production outcome set (Wang et al. 2014)

Experiment: label from the status in PepcDB records

Sequence | protein production
MPNTPWSATSQNLGQDFHNWSGGLRFRPSRLDVPEDEETVAALVRAAARQGRSIRPVGSAHSSSEIYVTDDILVSMAGICGLREHDAQHHRATVGAGSQLTELSKELQAAGMTLSNFGDVATQTVGGAIGTGTHGSGRDFPNLSMMLVGGRLVTAGGEIRTFDVEEEPDFVRALRVSFGTLGILTWTTLKLEPLHDLHRQEWCLAFEPCMEVLDKLSRENRNFDFYWYPRSDEVKIRCLNPPGEEKDYGAFARLAKDETGPPHEVIPQHSDLPHRFEEMEYSMPAEAGPECLGKLRARIKERWRRSVGWRLLFRYIKADDSWLSEAYGRDSVSISLHQNATLPYWDFFLDLEPIMRDHGGRPHWAKKHSLRAAELRPLYPMWDRFLALRQEMDPGGRFLTRYLRGLLGC | failed
MPPLCRRQSGVPSGRRARHSGGMRLLVLGGTEFVGRSVVEAALGRGWEVTVLHRGRHAPPPGVRALHGDRTAPDGLTALTGAEDTWDAVVDTWSAAPRAVRDAARLLRQRAGRYVYVSSCSVYAWAPPAGYAEDAPLVEGASADAGQRDYARDKRGAELAVLDAFGADRSVLVRAGLILGPYENVGRLPWWLNRLARGGPVLAPGPRDLPLQYIDVRDLADWVLGAVERELSGPYNLVSPPGHTTMGGLLEACATVTGGTAELRWTSPETVLAAGIEPWVQLPVWTPPGSDLHDALHTADVSRALATGLVCRPARDTAAGTWTWLRDLGGTAPQRPDRPPVGLDPETEAKVLAADGPGGGVSDTTP | failed
MPPMLSGLLARLVKLLLGRHGSALHWRAAGAATVLLVIVLLAGSYLAVLAERGAPGAQLITYPRALWWSVETATTVGYGDLYPVTLWGRLVAVVVMVAGITSFGLVTAALATWFVGREQERRGHFVRHSEKAAEEAYTRTTRALHERFDRLERMLDDNRR | failed
MPPPAMLAFDDGLARKSNDNEWQGFRVFPGENTNPNPNINFLVKKAILQNEKSITPLFSRSSARDDSFRIVLPPALPPPRDSTVPLPMLPEPMRVRKKLSHQESVIFMSKSRFAEKILYKEEDFKCNAFCLSLPGFGKNKLIRSSSKRQNSMEKKMIRASSFTGSTVSVRASLEKFECGSWASTTALIQDNGRLFFDFPVEMTKCNSRGGNGGRDVQEPVTSGFLFDRETETLALRSVLKTRSTRDHRRSAESSPQRRVRFSTSSSSASVSCPTSPRTCITPRLRKARDDFNTFLTAQNA | failed
MPPVWTLPRLYQHFQGAIDLELWTIPYYLTVLYSIKDPTTVPYRLIQAAVYQEMLHAQLVSNIANAYGYSPTLSAPEYVGTAVPHIDFDLDTPNPTSIFTPYSAELGPLDLTRVNTMCLIEYPEWRTQREPDLADDVTDYGSIGEFYDALRVGMEQLRGHVRGNQKQMDEFGPFYQNSPPLTVTESGDAGFLQALTLVDIIVDQGEGQTQPVETIPTEFQNTADGFQDAWPHFQRFDFIRRMPNWPGVYTGVTDPPAGSPGAEAQARLIADFAGFLDILNGMFSGGGAPPAFGVQMAKLGGDILSCWKLGAVPRYS | not failed
MPQDTTNPSTGTAEQRTATDTTVQLRAGWQGRFYEDFAVGDVYKHPYGRTVTETDNVWFTNLTMNANPMHFNAAYASGTEFDERLVNGLFVIALSVGMSVVDVSANATANLGYDDIQHHAPVFHGDTLFAESEVLSKRESESRPHVGMVTTELRTYTQDGELVLSLERTPMVRKRGAADPSAARPPGWPAGVGTQPDAERTVPDGESR | failed
MPQITLVFISLSGNTLSFVKRLSLYLADNYDYHVKQINIKDLKHETFPVKEEFVAILPTYLEGGNGVDSGDVEILTTPLGEFIAAHGNAQRCLGIIGSGNKNFNHQYCLTAKQYAKRFGFPLLGDFELRGTPDDISRLAQVIMEASSRHSSNDTQTL | failed
MPQKTKDTPMMRQYFAVKNQYPDAFLFYRLGDFYEMFFDDAIKGAQLLELTLTTRNHSAENPIPMCGVPHRAVQNYIDILVDKGYKVAICEQMEDPKLAKGMVKREVIQLVTPGTTLERGAEQAKTNNYLTALIQRDQQYGFAYADLSTGELKTSVLTTNDTLINELTSLQTKEIVVDDSVASDLRDQIKTLGILISEQNNVTPQAQLSYLTQDLTVDLEQQVVERLLMYITVTQKRSLAHLQKAIAYEPSYFLKLDHNSKYNLELMKSIRTGKKQGTLLWLLDETKTAMGGRLLKQWIDRPLIVKADIETRQNKVATLLDHYFERSNLQEELTKVYDLERLAGRVAFGSVNGRDLVQLKTSLRQIPKIRYILSELDTQVFNDEVNQLDPVEDVADLIDAAIVEDAPLSVTDGGVIKDGYNEQLDQYRDAMNNGKKWIAELEAQERATTGIKNLKIGFNRVFGYYIEVTKANLAQLPKDRYERKQTLTNAERFSTPELKSHESLILEAESHSTDLEYQLFTKVRETVKKAIQRLQTLAKAVAAIDVLQSFAVVSEDYHFVRPKLTKSHDLKIVDGRHPVVEKVMGNQSYVPNNVTMSPDETVLLITGPNMSGKSTYMRQLALTVIMAQIGCFVPAKSAQLPIFDQIFTRIGATDDLISGQSTFMVEMQEANNALQHATANSLVLFDEIGRGTATYDGMALAQAIIEFVHNHIHAKTLFSTHYHELTALDQELSGLRNVHVGATEQDGELVFLHKVEPGAADKSYGVHVAKLAGMPTSLLERANKILTSLENQTSTVSTTAASIAASDAANSVAPNTAASMPVEAADESQPVESETPVAEAPVAEAGDEQLSLFAEPAVTDAKGEKVLQQLKTLNLMAMTPMDVMNQLYKWQQKLGK | failed
MPQNQLVITIIDESGSKQLKFSKNLKRNLIISVVIFLLIVGLGVGFLKFLIAKMDTMTAERNAVLRDFRDLYQKNYTLTKEIKNKREELFIVGQKIRTIESLIEVKRGANGGVHLYDEVDLDNLNLAQKHLALMLIPNGMPIKTYSAIKPTKERNHPIKKIKGVESGIDFIAPLNTPVYASADGIVDFVKTNSNVGYGNLVRIEHAFGFSSIYTHLDHVNVQPKSFIQKGQLIGYSGKSGNSGGEKLHYEVRFLGKILDAQKFLAWDLDHFQSALEENKFIEWKNLFWVLEDIVQLQEHVDKDALISQ | failed
MPQVDPELFDRGQFQAELALKSSPIAAFKKAIRQFREVLDNRFNSGRDIRRLIEDRAWCVDQILQQAWQRFDWGDDADIALVAVGGYGRGELHPYSDVDLLILLDSEDQESFREPIEGFLTLLWDIGLEVGQSVRSVQQCAEEARADLTVITTLMECRTICGPDSLRQRMLQVTGSAHMWPSKEFFLAKRHEQQRRHAKYNDTEYNLEPNVKGSPGGLRDIQTILWMARRQFGSLNLHALVREGFLVESECSMLASSQEFLWRVRYALHMLAGRAEDRLLFDHQRSIARLFGYEDNDVKLAVERFMQKYYRVVMAISELNDLIIQHFEEVILPCEQPVQIQPLNSRFQLRDGYIEVTHPNVFKRTPFALLEIFVLMAQHPEIKGVRADTIRLLRDSRHLIDDEFRHDIRNTSLFIELFKSSQGIHRNLRRMNRYGILGRYLPEFGHIIGQMQHDLFHIYTVDAHTLNLIKHLRKLNRPEMAEKYPLASKIIDRLPKPELIYIAGLYHDIAKGRGGDHSELGAVDAEAFCQSHQLPLWDTQLVSWLVQNHLVMSTTAQRKDLSDPQVIFDFAQLVGDQTHLDYLYVLTVADINATNPTLWNSWRASLLRQLYTETKRALRRGLENPVDREEQIRQTQTAALDQLVRNGIDQDDAEQLWSQLGDDYFLRHTAGDVAWHTEAILQHPDDGTPLVLIKETTQREFESGSQIFIYAADQHDFFAVTVAAMDQLNLSIQDARIITSTSQFTLDTYIVLDADGDSIGNNPERIAEIREGLIDALKNPDDYPTIIQRRVPRQLKHFAFAPQVTISTDALRQVSVLEVIAPDRPGLLARIGGIFLDFDLSVQNAKIATLGERVEDVFYITDARNQPLADPDLCKRLQAALVEQLSQDNGRDT | failed
MPRFRSVFLALLVVPLVDAVFLVFVAGELGWQLTVALVVLTALLGTLFVRAEGRATLSRLQASVARGDPPTNELVDGGLLIAAGAFLLTPGLVTDALGFLIVIPVTRVAFRWGVKRYVTPKLDAKTGGFVSGNVYTFGFPGGDGGAGGDPRSGFGGGAGDGDDDTINLGDDAYDVSFEDDADGDQ | failed
MPRKNQDLYHHYPQKDRKFTMYKLSEKGEQIREMFSDIAPRYDFLNRLLSFGIDRRWRRIAVQCARWSEGGKILDVATGTGDVALEIARQTPDSVSIIGIDITEGMVVLGREKVAQSPYARRITLEIAPCEAIPFPDNTFDSVTIAFGIRNVVDRRQGLAEMQRILKPGGRAVILEFSTPRSQFFKRVYYFYFLRLLPAIGGLFSNFSAYKYLPDSVLEFPSQEEFKTLMRSVGFHSTTHRDLTFGIATIYTGEKAAQN | failed
MPRRSALLGQPLFRLLAINLAIGVTIAALLLGGLLYLNPGHLRDLIFADDSPGTALGLLLFGFVVTFGSAAMGSAIMAMGSDLRGGGKGGRKLALPIEMIPGAKAIPVRAEHGARAVRRHGSL | failed
